This assay has as its target ΔN-HAB1 (HAB1 Δ1-178), recombinant (Arabidopsis) (UniProt Q9CAJ0). The assay is described as follows: cell-based or functional assay.

Positions count from the first letter of the chain named.

Sequence of ΔN-HAB1 (HAB1 Δ1-178), recombinant (Arabidopsis) (Q9CAJ0 179-511, stated change not applied): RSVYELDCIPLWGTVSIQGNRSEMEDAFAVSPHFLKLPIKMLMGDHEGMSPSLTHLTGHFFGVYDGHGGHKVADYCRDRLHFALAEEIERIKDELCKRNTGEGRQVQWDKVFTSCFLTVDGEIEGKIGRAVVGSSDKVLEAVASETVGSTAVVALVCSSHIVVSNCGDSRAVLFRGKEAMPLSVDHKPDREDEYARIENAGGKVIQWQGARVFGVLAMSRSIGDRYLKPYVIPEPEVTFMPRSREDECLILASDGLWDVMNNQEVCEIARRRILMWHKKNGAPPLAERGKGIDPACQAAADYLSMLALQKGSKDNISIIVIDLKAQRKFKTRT

B1: 6xHis-PYR1^WIN, recombinant (designed binder, not shown: small tags and cut ends)
chain: MPSELTPEERSELKNSIAEFHTYQLDPGSCSSLHAQRIHAPPELVWSIVRRFDKPQTYQHFIKSCSVEQNFEMRVGCTRDVIVISGLPANTSTERLDILDDERRVTGFSIIGGEHRLTNYKSVTTVHRFEKENRIWTVVLESYVVDMPEGNSEDDTRMAIDTVVKLNLQKLATVAEAMARNSGDGSGSQVT
As to B1, the EC50 for HAB1 inhibition (in vitro phosphatase activity, fluorogenic substrate; the ligand WIN 55,212-2 is titrated, 50 nM receptor, 25 nM ΔN-HAB1) is 72 nM.

B2: 6xHis-PYR1^4F, recombinant (designed binder, not shown: small tags and cut ends)
chain: B1 chain with Q59K, H115Q, Y120G, A159V, I160G
B2: the EC50 for HAB1 inhibition (in vitro phosphatase activity, fluorogenic substrate; the ligand 4F-MDMB-BUTINACA is titrated, 25 nM receptor, 25 nM ΔN-HAB1) is 102 nM.

B3: PYR1^PIRI, recombinant (designed binder)
chain: B1 chain with Q59R, S92M, N119S, S122Q, E130G, A159T, I160T, V174A
For B3, the EC50 of receptor-mediated inhibition of HAB1 phosphatase activity in vitro (ligand pirimiphos-methyl titrated) was found to be 58 nM.

B4: PYR1^DIAZI, recombinant (designed binder)
chain: B1 chain with E8G, Q59K, V81Y, L87M, F108Y, M158V, A159G, I160V
Turning to B4, the EC50 of receptor-mediated inhibition of HAB1 phosphatase activity in vitro (ligand diazinon titrated) is 36 nM.
